Measurements reported in the supplement of paper PMC9170038.

System: MS2 coat protein
Experiment: apparent KD of MS2 coat protein; designed switch direction (-1 OFF switch, 1 ON switch): -1; higher = weaker reporter binding
Summary of the method: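 An oligonucleotide input, 200 uM small-molecule ligand, or no input was present during titration of SNAP-549-labelled MS2 coat protein, which was doubled from 0.7 or 1.5 nM to 3 µM. Designed RNA switches had been transcribed on Illumina chips by stalled E. coli RNA polymerase. Apparent KD per design is the median over clusters of curves fitted to normalised cluster fluorescence.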

[1] = input ligand: microRNA oligo, concentration not stated
[2] = Eterna round: R95, input ligand: FMN 200 uM
[3] = Eterna round: R95, input ligand: microRNA oligo, concentration not stated
[4] = Eterna round: R95, input ligand: none

Row | Sequence | apparent KD of MS2 coat protein (input ligand: FMN 200 uM) [nM] | apparent KD of MS2 coat protein (input ligand: none) [nM] | also measured
1 | CACCGUUAGUGAGGAUAUCUUACAUGAGGAUCACCCAUGUAAUAAAUGAGAAUUUCGGAUGUAUGAGAGAAGGCACAAAUCGGC [Ostricism 53 - Jieux - Exclusion NG 2] (Eterna round: R96, puzzle: Exclusion NG 2) | 21.2 | 22.7 | apparent KD of MS2 coat protein [1]: 18.5 nM
2 | CAGUACUGAGGAUAUACAUGAGGAUCACCCAUGUGUCCUAGCUAGGAAACUAGCAAAAGUAGAAGGCAGUACUG [Fiskers Ex 3 828 mod 5] (puzzle: Exclusion 3) |  |  | apparent KD of MS2 coat protein [2]: 249 nM; apparent KD of MS2 coat protein [3]: 21.2 nM; apparent KD of MS2 coat protein [4]: 22.9 nM
3 | UAUUAGUAAGGAUAUCCCACGUAGGACGAAAGUCCUACGUGGGAGAAGGUACAUGAGGAUCACCCAUGUCUAUU [Mod of Fisker 12 - Jieux - Exclusion 4] (Eterna round: R97, puzzle: Exclusion 4) | 20.4 | 18.7 | 
4 | UAUGGUUAAGUCAGGAUAUGCACGCAGAUUACAAAGCAGAAGGGACAUGAGGAUCACCCAUGUACACUCGUGUU [Ex4 #79] (Eterna round: R97, puzzle: Brourd's mod of Exclusion 4) | 25.9 | 36.1 | 
5 | GCAGCAUAGAUGAAAGUCUGAUACAUGAGGAUCACCCAUGUACAGGAUAUGGUCUGGAUUACAGGCCAGAAGGGUACAAGCUGC [Eli exng3 - 013] (Eterna round: R96, puzzle: Exclusion NG 3) | 14.4 | 12.8 | apparent KD of MS2 coat protein [1]: 10.6 nM
6 | UUCUUACGAGGAUAUCGAUUGUGGUACAUGAGGAUCACCCAUGUAUGUGAUAUUGUAUUUCGAGAAGGCGUUCAGU [JR_E5_Sub059] (puzzle: Exclusion 5) |  |  | apparent KD of MS2 coat protein [3]: 25.2 nM
7 | CAGUACUGAGGAUAUACAUGAGGAUCACCCAUGUGUUGCAGCUAGGAAACUAGCAAAAGUAGAAGGCAGUACUG [salish99_ex3_r3_081] (puzzle: Exclusion 3) |  |  | apparent KD of MS2 coat protein [3]: 12 nM
8 | ACUAGAUGAGGAUAUGCACAUUUUAGUGUUCCUCUAGAUUAACAUGAGGAUCACCCAUGUAGAAGGCGUCAAUU [Exclusion 2 - 12] (puzzle: Exclusion 2) |  |  | apparent KD of MS2 coat protein [3]: 53.1 nM
9 | CGAUGUAGAGGAUAUACGUGAAUUUUGUUAUUUUUUAAUUUACAUGAGGAUCACCCAUGUAGAAGGCUAUAUCG [JR_Ex2_Sub087] (Eterna round: R97, puzzle: Exclusion 2) | 91.9 | 22.2 | 
10 | UUAACAUGCUGGUGAUCAUACAUGAGGAUCACCCAUGUAACAAGCUUUUUGUUCGUCUUAUAAGAUUACUAGUAUGU [Stov1/10-B1] (Eterna round: R97, puzzle: Sensor, turn-off variant 1) | 39.4 | 59.4 | 
11 | AAGUCAUUAGGAUAUGAAUAGGGAGACAUGAGGAUCACCCAUGUUGAUAGAACGACAUGUUCAGAAGGAGUCGCUG [Eternabot (L1) Solution 45] (Eterna round: R97, puzzle: Exclusion 5) | 33.7 | 33 | 
12 | AGCUGACAAGGAUAUACAUGAGGAUCACCCAUGUUGGUUCAGCGACGAUAGUCGCAAUGUAGAAGGUGUCAGCU [E3/9-C2] (Eterna round: R97, puzzle: Exclusion 3) | 108 | 282 | 
13 | UAUGGUUAAGUCAGGAUAUACGUGCAGUUUUCUGGGUAGAAGGGACAUGAGGAUCACCCAUGUAUGGUAGUGUU [Ex4 #49] (Eterna round: R97, puzzle: Brourd's mod of Exclusion 4) | 188 | 149 | 
14 | AACCAGCGAGGAUAUGCUUGCGCGUGUUCUGGUUAUAAUCGACUUGAGGAUCACCCAAGUAGAAGGCGCUGCCG [EX2 #52] (Eterna round: R97, puzzle: Exclusion 2) | 179 | 64.2 | 
15 | AUUAUAUAGAAAGGAUAUAGAUUAUUAUUUUAACAUGAGGAUCACCCAUGUAGCCUUAUGUAUAACUAGAAGGUUCAUUUAUUA [Title] (Eterna round: R96, puzzle: Exclusion NG 2) |  |  | apparent KD of MS2 coat protein [1]: 57.9 nM
16 | CAGUACUGAGGAUAUACAUGAGGAUCACCCAUGUGUGUGAGAAAAGGAAGAAAAGAAUGUAGAAGGCGGUGCUG [JR_Ex3_Sub040] (Eterna round: R97, puzzle: Exclusion 3) | 240 | 486 | 
17 | CUGCUCCGUGUAGGAUAUCCAUGCAACCAAUAUGGAGAAGGACAUGAGGAUCACCCAUGUAUGUUAUUAUCACGUGAAGCGUCC [Design 23] (Eterna round: R96, puzzle: Exclusion NG 1) | 28.6 | 31.2 | apparent KD of MS2 coat protein [1]: 24 nM
18 | AGCCUACAUGAGGAUCACCCAUGUCAGGAUAUCUCGCGGCGUGUCAAGUUCACACUGCAGAGAAGGGACUCGGG [Edsoriri] (puzzle: Exclusion 1) |  |  | apparent KD of MS2 coat protein [3]: 51.4 nM
19 | GAAAAGGUAGGAUAUACGAAAAAAAAGGGUAGAAAAAAAGCACAUGAGGAUCACCCAUGUAGAAGGACCAAAAG [salish99_ex2_r3_018] (puzzle: Exclusion 2) |  |  | apparent KD of MS2 coat protein [2]: 137 nM; apparent KD of MS2 coat protein [3]: 32.5 nM; apparent KD of MS2 coat protein [4]: 33.5 nM
20 | UAAAUGGUGUCAGGAUAUCCUGCAUAGUCUGCUGGAGAAGGGACAUGAGGAUCACCCAUGUAAGCCGGCAUGACUGAAUUCCUC [Atrice] (Eterna round: R96, puzzle: Exclusion NG 1) | 50.7 | 32.2 | apparent KD of MS2 coat protein [1]: 23.3 nM
21 | CGAGCACGUGUAAGGAUAUGCUCGCUCUAUUUGGCGCAGAAGGUACAUGAGGAUCACCCAUGUAGCGACUUGGG [Eternabot (L2) Solution 7] (Eterna round: R97, puzzle: Brourd's mod of Exclusion 4) | 41.6 | 27.6 | 
22 | UGAGUGCUGCGAGGAUAUACAUGAGGAUCACCCAUGUAAUAGUGUGAGGCUUUGCCUCACACAAUGUAGAAGGCGCAGUACUCU [JL ENG2 1.02] (Eterna round: R96, puzzle: Exclusion NG 2) | 17.1 | 12.5 | apparent KD of MS2 coat protein [1]: 8.58 nM
23 | GGUCCACAUGAGGAUCACCCAUGUUAGGAUAUCUCGCCCGAGUCGUUAUGGGCCAGGCAGAGAAGGAAUGUGAA [Cebeisve] (puzzle: Exclusion 1) |  |  | apparent KD of MS2 coat protein [3]: 18 nM
24 | UUAAUUCUGAUUCUUGAAAUACAUGAGGAUCACCCAUGUUCACAGGAUAUUGAUUAUGGUAGUAACAAGAAGGGUGUAUCAUUU [JR_ExcNG3_Sub040] (Eterna round: R96, puzzle: Exclusion NG 3) | 192 | 111 | apparent KD of MS2 coat protein [1]: 162 nM
25 | UCGGCGCGAGGAUAUACGUUUGCUUUUUUGGGUCGUUGCGUACAUGAGGAUCACCCAUGUAGAAGGCGCGCCGC [Apr-15 SS2-25] (Eterna round: R96, puzzle: Exclusion 2) | 145 | 31.8 | apparent KD of MS2 coat protein [1]: 25.9 nM
26 | UUUUAACAUGAGGAUCACCCAUGUGAGGAUAUCGAAAUUUAUAUUAAUAUUUAUUUAUCGAGAAGGCACAUUUU [JMF 64] (puzzle: Exclusion 1) |  |  | apparent KD of MS2 coat protein [3]: 120 nM
27 | UGCCUACAUGAGGAUCACCCAUGUGAGGAUAUCCUGCGAGGAUCAAAAGAUCCUCGUGGGAGAAGGCACAUGAA [Omei Ex1 B1] (Eterna round: R97, puzzle: Exclusion 1) | 146 | 38.5 | 
